Source: publication PMC11937023

Target: endogenous CD64 (FcγRI) on primary human myeloid cells (human (endogenous in primary human monocytes)) (UniProt P12314)
UniProt P12314, sequence (P12314 16-374): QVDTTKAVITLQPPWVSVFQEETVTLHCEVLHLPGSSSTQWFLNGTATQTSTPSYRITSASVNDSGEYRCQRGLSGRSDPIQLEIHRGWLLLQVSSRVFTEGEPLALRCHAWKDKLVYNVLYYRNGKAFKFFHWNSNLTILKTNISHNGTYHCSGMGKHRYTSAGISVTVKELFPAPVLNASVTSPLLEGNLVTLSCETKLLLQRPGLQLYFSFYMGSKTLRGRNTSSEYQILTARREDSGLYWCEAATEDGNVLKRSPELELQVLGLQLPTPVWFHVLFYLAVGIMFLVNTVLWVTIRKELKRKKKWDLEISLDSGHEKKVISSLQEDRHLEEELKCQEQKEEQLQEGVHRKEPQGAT

| IC50 for inhibiting IL-23 signaling (luciferase in IL-23 reporter cells) in co-culture with R848-stimulated, IFNγ-primed CD64+ THP-1 cells, 16 hours [nM] | Substance |
| --- | --- |
| 0.092 | guselkumab (antibody) |
| 0.477 | guselkumab modified to contain LALA mutations in the Fc domain (antibody) |
